The values below are quoted from earlier work in article PMC11426987.

The term Kd denotes a measure of binding affinity in units of concentration.

Read-outs that look alike come from different tables or passages of the source.

For series [1], the target named is protein S (Homo sapiens) (UniProt P07225).
The target is the same in series [2]. This is another data set of the same source.

Sequence of UniProt P07225 (P07225 42-676): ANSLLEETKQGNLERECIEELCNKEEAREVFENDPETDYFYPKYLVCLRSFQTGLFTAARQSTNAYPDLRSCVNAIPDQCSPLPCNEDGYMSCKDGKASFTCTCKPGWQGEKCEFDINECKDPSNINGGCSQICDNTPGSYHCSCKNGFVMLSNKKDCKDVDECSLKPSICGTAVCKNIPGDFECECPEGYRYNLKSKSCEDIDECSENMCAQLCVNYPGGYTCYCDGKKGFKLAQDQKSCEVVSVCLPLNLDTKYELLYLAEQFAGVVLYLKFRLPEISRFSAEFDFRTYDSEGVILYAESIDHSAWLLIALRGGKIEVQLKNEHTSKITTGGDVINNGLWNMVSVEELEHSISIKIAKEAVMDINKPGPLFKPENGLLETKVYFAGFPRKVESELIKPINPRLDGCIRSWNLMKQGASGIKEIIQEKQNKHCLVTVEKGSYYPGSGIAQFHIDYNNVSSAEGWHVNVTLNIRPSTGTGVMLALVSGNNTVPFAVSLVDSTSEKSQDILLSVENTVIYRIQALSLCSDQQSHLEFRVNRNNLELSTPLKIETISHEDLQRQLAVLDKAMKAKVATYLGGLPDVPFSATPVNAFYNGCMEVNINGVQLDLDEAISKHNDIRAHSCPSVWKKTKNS

As for TFPI (from UniProt P10646), the Kd in series [1] is more than 1 µM.

Turning to TFPIα (from UniProt P10646), the Kd in series [2] was 0.02 µM.
